Molecular target: TA-MUC1 (tumor-associated MUC1) on human tumor cells (human, UniProt P15941 24-1255, aberrant tumor-associated O-glycosylation)
Test: cell-based or functional assay

Chain of TA-MUC1 (tumor-associated MUC1) on human tumor cells (P15941 24-1255): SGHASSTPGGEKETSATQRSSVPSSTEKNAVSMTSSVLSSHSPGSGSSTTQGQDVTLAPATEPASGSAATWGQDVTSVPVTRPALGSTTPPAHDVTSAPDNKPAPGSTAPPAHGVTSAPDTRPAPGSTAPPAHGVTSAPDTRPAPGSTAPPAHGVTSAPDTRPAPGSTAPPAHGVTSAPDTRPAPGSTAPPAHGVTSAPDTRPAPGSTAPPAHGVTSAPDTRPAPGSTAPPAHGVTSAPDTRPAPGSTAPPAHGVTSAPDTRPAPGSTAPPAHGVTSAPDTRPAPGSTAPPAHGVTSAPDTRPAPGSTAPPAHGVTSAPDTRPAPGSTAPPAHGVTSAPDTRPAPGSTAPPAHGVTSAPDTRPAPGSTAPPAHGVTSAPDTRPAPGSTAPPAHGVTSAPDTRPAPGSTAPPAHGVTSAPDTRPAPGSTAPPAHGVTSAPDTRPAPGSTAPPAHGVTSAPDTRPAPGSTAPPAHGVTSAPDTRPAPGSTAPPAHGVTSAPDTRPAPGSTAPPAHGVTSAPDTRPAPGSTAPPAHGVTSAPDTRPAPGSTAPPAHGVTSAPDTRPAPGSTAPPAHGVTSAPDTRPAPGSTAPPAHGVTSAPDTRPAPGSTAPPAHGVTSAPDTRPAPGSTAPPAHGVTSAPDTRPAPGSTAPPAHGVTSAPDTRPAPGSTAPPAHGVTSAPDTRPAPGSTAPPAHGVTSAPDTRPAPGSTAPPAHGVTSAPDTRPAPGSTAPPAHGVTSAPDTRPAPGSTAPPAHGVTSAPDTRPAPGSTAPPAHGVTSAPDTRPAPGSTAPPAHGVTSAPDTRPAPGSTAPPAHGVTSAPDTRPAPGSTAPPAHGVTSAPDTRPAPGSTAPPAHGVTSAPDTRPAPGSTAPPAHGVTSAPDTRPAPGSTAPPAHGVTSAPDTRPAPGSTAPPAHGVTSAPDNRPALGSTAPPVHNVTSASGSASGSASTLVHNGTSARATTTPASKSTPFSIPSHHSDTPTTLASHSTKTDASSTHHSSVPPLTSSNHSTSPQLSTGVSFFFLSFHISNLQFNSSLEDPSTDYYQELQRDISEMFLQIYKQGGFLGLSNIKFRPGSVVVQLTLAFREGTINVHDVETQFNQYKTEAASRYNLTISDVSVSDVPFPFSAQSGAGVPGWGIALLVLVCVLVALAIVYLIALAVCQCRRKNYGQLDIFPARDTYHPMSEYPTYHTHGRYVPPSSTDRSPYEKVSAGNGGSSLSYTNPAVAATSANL

B1: PankoMab-ADC (antibody, human IgG1, kappa, V domains shown)
VH: EVQLVESGGGLVQPGGSMRLSCVASGFPFSNYWMNWVRQAPGKGLEWVGEIRLKSNNYTTHYAESVKGRFTISRDDSKNSLYLQMNSLKTEDTAVYYCTRHYYFDYWGQGTLVTVSS
VL: DIVMTQSPLSNPVTPGEPASISCRSSKSLLHSNGITYFFWYLQKPGQSPQLLIYQMSNLASGVPDRFSGSGSGTDFTLRISRVEAEDVGVYYCAQNLELPPTFGQGTKVEIKR
modifications: drug-linker of Formula 2 bound by thioether bonds; drug-linker of Formula 2 (maleimide-GGFG linker with DXd/exatecan derivative) bound by thioether bonds; average approximately 8 drug molecules per antibody; Fab N-glycan on Asn54 (position 57)
IC50 of cytotoxic activity (cell viability, ATP assay, 6 days) on TA-MUC1 positive MDA-MB-468 cells: < 10 nM

B2: PM-N54Q-ADC (antibody, human IgG1, kappa, V domains shown)
VH: EVQLVESGGGLVQPGGSMRLSCVASGFPFSNYWMNWVRQAPGKGLEWVGEIRLKSNQYTTHYAESVKGRFTISRDDSKNSLYLQMNSLKTEDTAVYYCTRHYYFDYWGQGTLVTVSS
VL: DIVMTQSPLSNPVTPGEPASISCRSSKSLLHSNGITYFFWYLQKPGQSPQLLIYQMSNLASGVPDRFSGSGSGTDFTLRISRVEAEDVGVYYCAQNLELPPTFGQGTKVEIKR
modifications: drug-linker of Formula 2 bound by thioether bonds; drug-linker of Formula 2 (maleimide-GGFG linker with DXd/exatecan derivative) bound by thioether bonds; average approximately 8 drug molecules per antibody
cytotoxic activity on HPAC and NCI-H441 cells, fold against PankoMab-ADC: > 1.5 fold
potency ratio of PM-N54Q-ADC to PankoMab-ADC, cytotoxic activity on HPAC cells: 1.92 ratio
potency ratio of PM-N54Q-ADC to PankoMab-ADC, cytotoxic activity on NCI-H441 cells: 1.66 ratio

From patent US20210187118A1 (Daiichi Sankyo, published 2021)
